Test results reported in paper PMC4148199, “Multiple Regulation of Rad51-Mediated Homologous Recombination by Fission Yeast Fbh1” (PLoS Genetics, 2014).

T1: Fbh1;Skp1 (Schizosaccharomyces …, UniProt Q9USU3;Q9Y709 1-878;1-161, |)
T1 sequence 1: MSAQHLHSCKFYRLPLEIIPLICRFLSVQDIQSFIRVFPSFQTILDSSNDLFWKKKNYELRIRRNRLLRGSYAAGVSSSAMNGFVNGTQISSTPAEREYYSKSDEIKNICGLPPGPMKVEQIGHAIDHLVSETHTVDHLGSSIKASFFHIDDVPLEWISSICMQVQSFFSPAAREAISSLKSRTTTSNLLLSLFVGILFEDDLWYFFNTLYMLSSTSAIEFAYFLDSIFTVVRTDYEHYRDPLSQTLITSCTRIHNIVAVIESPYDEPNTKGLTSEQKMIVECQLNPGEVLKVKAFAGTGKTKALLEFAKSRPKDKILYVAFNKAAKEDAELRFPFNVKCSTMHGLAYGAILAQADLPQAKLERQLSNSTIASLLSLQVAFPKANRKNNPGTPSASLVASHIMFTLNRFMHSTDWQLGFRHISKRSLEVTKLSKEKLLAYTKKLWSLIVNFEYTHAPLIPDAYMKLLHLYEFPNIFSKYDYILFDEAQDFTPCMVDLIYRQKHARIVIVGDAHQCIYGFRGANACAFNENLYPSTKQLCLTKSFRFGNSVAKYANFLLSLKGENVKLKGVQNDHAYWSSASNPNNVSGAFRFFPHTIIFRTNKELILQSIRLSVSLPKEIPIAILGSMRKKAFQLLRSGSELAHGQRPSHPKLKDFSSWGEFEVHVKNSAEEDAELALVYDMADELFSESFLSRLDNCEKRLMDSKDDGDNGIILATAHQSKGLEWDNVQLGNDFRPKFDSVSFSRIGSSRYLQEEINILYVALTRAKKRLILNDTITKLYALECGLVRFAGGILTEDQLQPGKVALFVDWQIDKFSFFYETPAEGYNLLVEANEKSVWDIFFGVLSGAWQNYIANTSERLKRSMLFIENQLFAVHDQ
T1 sequence 2: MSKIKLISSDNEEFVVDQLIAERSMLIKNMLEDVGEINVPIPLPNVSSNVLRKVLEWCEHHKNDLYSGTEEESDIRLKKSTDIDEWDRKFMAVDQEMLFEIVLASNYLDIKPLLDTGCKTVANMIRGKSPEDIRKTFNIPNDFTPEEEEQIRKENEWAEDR

T2: complex of 3FLAG6His-Fbh1 and 6His-Skp1 (S. pombe, UniProt Q9USU3 1-878; Q9Y709 1-161)
T2 construct: Fbh1 (F-box DNA helicase-1), Schizosaccharomyces pombe; Skp1, Schizosaccharomyces pombe; also called FLAG-His-tagged Fbh1-Skp1; Fbh1-Skp1 complex; source: insect cells, baculovirus co-infection, purified as a complex
T2 sequence (looked up) 1: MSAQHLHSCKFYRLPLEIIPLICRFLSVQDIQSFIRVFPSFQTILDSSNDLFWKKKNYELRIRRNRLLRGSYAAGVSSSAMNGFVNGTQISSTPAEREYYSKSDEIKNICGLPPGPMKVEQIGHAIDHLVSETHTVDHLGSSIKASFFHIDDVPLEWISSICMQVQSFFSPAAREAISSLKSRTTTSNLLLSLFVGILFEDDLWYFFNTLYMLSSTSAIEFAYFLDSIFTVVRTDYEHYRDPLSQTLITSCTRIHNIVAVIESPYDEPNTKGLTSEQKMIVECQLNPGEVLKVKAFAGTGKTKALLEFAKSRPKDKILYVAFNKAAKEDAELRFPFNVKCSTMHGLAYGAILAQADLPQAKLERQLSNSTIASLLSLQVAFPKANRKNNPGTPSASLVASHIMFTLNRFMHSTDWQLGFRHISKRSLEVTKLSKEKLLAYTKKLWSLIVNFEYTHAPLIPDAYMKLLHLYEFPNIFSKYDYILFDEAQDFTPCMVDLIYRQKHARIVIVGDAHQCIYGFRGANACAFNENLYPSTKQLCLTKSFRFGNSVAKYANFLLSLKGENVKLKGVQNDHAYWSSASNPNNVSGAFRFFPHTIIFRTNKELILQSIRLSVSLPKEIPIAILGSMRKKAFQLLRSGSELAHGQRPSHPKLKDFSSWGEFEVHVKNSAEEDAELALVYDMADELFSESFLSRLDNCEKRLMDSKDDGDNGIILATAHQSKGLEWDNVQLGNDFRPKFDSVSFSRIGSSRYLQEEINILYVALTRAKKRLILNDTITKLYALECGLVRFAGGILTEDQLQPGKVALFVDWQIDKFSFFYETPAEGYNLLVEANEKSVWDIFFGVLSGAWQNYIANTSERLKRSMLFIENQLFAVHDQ
T2 sequence (looked up) 2: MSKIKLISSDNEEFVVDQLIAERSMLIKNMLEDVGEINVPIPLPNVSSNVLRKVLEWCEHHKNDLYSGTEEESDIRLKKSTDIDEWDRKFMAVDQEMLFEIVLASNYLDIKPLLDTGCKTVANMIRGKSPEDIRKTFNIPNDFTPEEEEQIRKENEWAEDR

B1: F3-d47 (47-mer ssDNA) (ssDNA)
DNA: AGCTATGACCATGATTACGAATTGCTTGGAATCCTGACGAACTGTAG
B2: Rad51 (natural protein, S. pombe, UniProt P36601 1-365, looked up)
chain: MADTEVEMQVSAADTNNNENGQAQSNYEYDVNVQDEEDEAAAGPMPLQMLEGNGITASDIKKIHEAGYYTVESIAYTPKRQLLLIKGISEAKADKLLGEASKLVPMGFTTATEYHIRRSELITITTGSKQLDTLLQGGVETGSITELFGEFRTGKSQICHTLAVTCQLPIDMGGGEGKCLYIDTEGTFRPVRLLAVADRYGLNGEEVLDNVAYARAYNADHQLELLQQAANMMSESRFSLLVVDSCTALYRTDFSGRGELSARQMHLARFMRTLQRLADEFGIAVVITNQVVAQVDGISFNPDPKKPIGGNILAHSSTTRLSLRKGRGEQRICKIYDSPCLPESEAIFAINSDGVGDPKEIIAPV
notes: Rad51 recombinase, Schizosaccharomyces pombe; also called SpRad51

What was measured:
Fbh1;Skp1 = target: T1, Fbh1;Skp1; test: EMSA; 3 mM Mg-acetate; preferred substrate; EMSA: 25 mM Tris-acetate pH 8.0, 1 mM DTT, 3 mM Mg-acetate, 5% glycerol, 100 mM KCl, 10 nM DNA, 30 C 10 min; ssDNA beads: 30 mM Tris-HCl pH 7.5, 1 mM DTT, 100 mM NaCl, 3.5 mM MgCl2, 5% glycerol, 0.25% Tween 20, ATP regeneration system, 37 C; details: protein: recombinant;recombinant; tags: 6His;6His; copies: 1;1; label: 32P
[1] = target: T2, complex of 3FLAG6His-Fbh1 and 6His-Skp1; test: co-IP; in vitro; 0.5 µg of each purified protein mixed in 10 µl 25 mM Tris-OAc pH 7.5, 100 mM KCl, 0.5% NP40, 3 mM Mg-acetate, 10 min room temperature then 20 min 4°C; M2 anti-FLAG antibody and Dynabeads Protein G; western blot with anti-Rad51, anti-Sfr1 or anti-M2; details: both partners purified

Binder	binding result (Fbh1;Skp1)	binding result [1]
B1	binds	–
B2	–	binds
